Results as given in paper doi:10.1101/2025.11.11.687766.

Key:
[1] = biological target: Retron-Eco8 effector (OLD-family nuclease), untagged, of the Retron-Eco8^ATP construct (Escherichia coli); assay: cryo-EM structure
[2] = biological target: Retron-Eco8 reverse transcriptase (RT) (Escherichia coli); assay: cryo-EM structure

Substance: Retron-Eco8 effector (OLD-family nuclease), untagged, of the Retron-Eco8^ATP construct (enzyme)
- stoichiometry N [1]: 4
- stoichiometry N (RT per effector (4:4)) [2]: 1
